The target of the test is HKU1 S 2P prefusion-stabilized ectodomain trimer (HCoV-HKU1, isolate  (N5 used), UniProt Q0ZME7, stabilised). In words: SPR.

B1: S2P6 Fab fragment (Fab, V domains shown)
VH: EVQLVQSGAEVKKPGASVKVSCKASGYTFTSQYMHWVRQAPGQGLEWIGIINPSGVHTSYAQKFQGRVTLTRDTSTSTLYMELSSLRSEDTAVYYCARGSPKGAFDYWGQGTLVTVSS
VL: not shown
Take B1: the Kd (commonly the free concentration of one partner at which half of the binding sites on the other are occupied at equilibrium, for simple one-to-one binding) was about 120 nM.

The record behind these values is doi:10.1101/2021.05.09.442808 (bioRxiv, 2021).
